Literature values as cited in patent US12037378B2, “Variant CD58 domains and uses thereof” (NOVARTIS AG, priority 2019, dated 2024).

Target: T1, CD2 (Homo sapiens, UniProt P06729)
T1 sequence (P06729 25-351): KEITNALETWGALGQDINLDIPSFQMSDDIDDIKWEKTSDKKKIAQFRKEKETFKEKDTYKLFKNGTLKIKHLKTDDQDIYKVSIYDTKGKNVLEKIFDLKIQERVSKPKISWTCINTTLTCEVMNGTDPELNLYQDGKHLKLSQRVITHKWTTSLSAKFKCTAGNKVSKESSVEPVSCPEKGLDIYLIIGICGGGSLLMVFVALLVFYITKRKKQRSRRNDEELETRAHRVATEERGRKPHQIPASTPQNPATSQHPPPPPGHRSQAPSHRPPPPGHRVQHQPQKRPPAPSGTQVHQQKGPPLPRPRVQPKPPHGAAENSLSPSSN
Conditions: Wang et al., 1999, Cell 97:791-803; cited from earlier work

B1: CD58-6: Amino acids 30-123 (WT) Ig-V like domain of CD58, SEQ ID NO:6 (protein, listed as Homo sapiens)
chain: SQQIYGVVYGNVTFHVPSNVPLKEVLWKKQKDKVAELENSEFRAFSSFKNRVYLDTVSGSLTIYNLTSSDEDEYEMESPNITDTMKFFLYVLES
  binding to CD2: sufficient for binding to CD2
